Source: patent US20230002480A1

How the values were obtained:
Assay in all cases: cell-based or functional assay
[1] = target: HIV-1 Env of pseudovirus 1054_07_TC4_1499 (HIV-1)
[2] = target: HIV-1 Env of pseudovirus 249M B10 (HIV-1)
[3] = target: HIV-1 Env of pseudovirus 3301.v1.c24 (HIV-1)
[4] = target: HIV-1 Env of pseudovirus 6041.v3.c23 (HIV-1)
[5] = target: HIV-1 Env of pseudovirus 62357_14_D3_4589 (HIV-1)
[6] = target: HIV-1 Env of pseudovirus 6244_13_B5_4576 (HIV-1)
[7] = target: HIV-1 Env of pseudovirus 6480.v4.c25 (HIV-1)
[8] = target: HIV-1 Env of pseudovirus 6535.3 (HIV-1)
[9] = target: HIV-1 Env of pseudovirus 6540.v4.c1 (HIV-1)
[10] = target: HIV-1 Env of pseudovirus AC10.0.29 (HIV-1)
[11] = target: HIV-1 Env of pseudovirus BF1266.431a (HIV-1)
[12] = target: HIV-1 Env of pseudovirus CAP210.2.00.E8 (HIV-1)
[13] = target: HIV-1 Env of pseudovirus CAP45.2.00.G3 (HIV-1)
[14] = target: HIV-1 Env of pseudovirus Ce1086_B2 (HIV-1)
[15] = target: HIV-1 Env of pseudovirus Du172.17 (HIV-1)
[16] = target: HIV-1 Env of pseudovirus HIV-16845-2.22 (HIV-1)
[17] = target: HIV-1 Env of pseudovirus P0402_c2_11 (HIV-1)
[18] = target: HIV-1 Env of pseudovirus Q461.e2 (HIV-1)
[19] = target: HIV-1 Env of pseudovirus Q842.d12 (HIV-1)
[20] = target: HIV-1 Env of pseudovirus T255-34 (HIV-1)
[21] = target: HIV-1 Env of pseudovirus TRO.11 (HIV-1)
[22] = target: HIV-1 Env of pseudovirus WEAU_d15_410_787 (HIV-1)
[23] = target: HIV-1 Env of pseudovirus ZM135M.PL10a (HIV-1)
[24] = target: HIV-1 Env of pseudovirus ZM247v1(Rev-) (HIV-1)
[25] = target: HIV-1 Env of pseudovirus 0260.v5.c36 (HIV-1)
[26] = target: HIV-1 Env of pseudovirus CNE17 (HIV-1)
[27] = target: HIV-1 Env of pseudovirus CNE19 (HIV-1)
[28] = target: HIV-1 Env of pseudovirus CNE20 (HIV-1)
[29] = target: HIV-1 Env of pseudovirus CNE30 (HIV-1)
[30] = target: HIV-1 Env of pseudovirus CNE52 (HIV-1)
[31] = target: HIV-1 Env of pseudovirus CNE53 (HIV-1)
[32] = target: HIV-1 Env of pseudovirus CNE58 (HIV-1)

## VRC01 (antibody)
[1]
  IC50, titer in TZM.bl cells: 0.71 µg/mL
  IC80, titer in TZM.bl cells: 2.85 µg/mL
[2]
  IC50, titer in TZM.bl cells: 0.13 µg/mL
  IC80, titer in TZM.bl cells: 0.46 µg/mL
[3]
  IC50, titer in TZM.bl cells: 0.14 µg/mL
  IC80, titer in TZM.bl cells: 0.32 µg/mL
[4]
  IC50, titer in TZM.bl cells: 0.02 µg/mL
  IC80, titer in TZM.bl cells: 0.08 µg/mL
[5]
  IC50, titer in TZM.bl cells: 0.96 µg/mL
  IC80, titer in TZM.bl cells: 4.68 µg/mL
[6]
  IC50, titer in TZM.bl cells: 0.21 µg/mL
  IC80, titer in TZM.bl cells: 0.53 µg/mL
[7]
  IC50, titer in TZM.bl cells: 0.04 µg/mL
  IC80, titer in TZM.bl cells: 0.09 µg/mL
[8]
  IC50, titer in TZM.bl cells: 0.54 µg/mL
  IC80, titer in TZM.bl cells: 2.7 µg/mL
[9]
  IC50, titer in TZM.bl cells: > 50 µg/mL
  IC80, titer in TZM.bl cells: > 50 µg/mL
[10]
  IC50, titer in TZM.bl cells: 2.2 µg/mL
  IC80, titer in TZM.bl cells: 6.5 µg/mL
[11]
  IC50, titer in TZM.bl cells: 0.07 µg/mL
  IC80, titer in TZM.bl cells: 0.23 µg/mL
[12]
  IC50, titer in TZM.bl cells: > 50 µg/mL
  IC80, titer in TZM.bl cells: > 50 µg/mL
[13]
  IC80, titer in TZM.bl cells: > 50 µg/mL
[14]
  IC50, titer in TZM.bl cells: 0.42 µg/mL
  IC80, titer in TZM.bl cells: 1.44 µg/mL
[15]
  IC50, titer in TZM.bl cells: > 50 µg/mL
  IC80, titer in TZM.bl cells: > 50 µg/mL
[16]
  IC50, titer in TZM.bl cells: 2.8 µg/mL
  IC80, titer in TZM.bl cells: 12.7 µg/mL
[17]
  IC50, titer in TZM.bl cells: 0.21 µg/mL
  IC80, titer in TZM.bl cells: 0.59 µg/mL
[18]
  IC50, titer in TZM.bl cells: 0.49 µg/mL
  IC80, titer in TZM.bl cells: 1.6 µg/mL
[19]
  IC50, titer in TZM.bl cells: 0.03 µg/mL
  IC80, titer in TZM.bl cells: 0.096 µg/mL
[20]
  IC50, titer in TZM.bl cells: 0.7 µg/mL
  IC80, titer in TZM.bl cells: 2.7 µg/mL
[21]
  IC50, titer in TZM.bl cells: 0.21 µg/mL
  IC80, titer in TZM.bl cells: 0.83 µg/mL
[22]
  IC50, titer in TZM.bl cells: 0.12 µg/mL
  IC80, titer in TZM.bl cells: 0.26 µg/mL
[23]
  IC50, titer in TZM.bl cells: 0.35 µg/mL
  IC80, titer in TZM.bl cells: 2.7 µg/mL
[24]
  IC50, titer in TZM.bl cells: 0.35 µg/mL
  IC80, titer in TZM.bl cells: 1.29 µg/mL

## 10E8 (antibody)
[25]
  IC50, titer in TZM.bl cells: > 10 µg/mL
  IC80, titer in TZM.bl cells: > 10 µg/mL
[1]
  IC50, titer in TZM.bl cells: 0.046 µg/mL
  IC80, titer in TZM.bl cells: 0.305 µg/mL
[2]
  IC50, titer in TZM.bl cells: 1.27 µg/mL
  IC80, titer in TZM.bl cells: 9.05 µg/mL
[5]
  IC50, titer in TZM.bl cells: 0.119 µg/mL
  IC80, titer in TZM.bl cells: 1.06 µg/mL
[6]
  IC50, titer in TZM.bl cells: 0.086 µg/mL
  IC80, titer in TZM.bl cells: 0.809 µg/mL
[8]
  IC50, titer in TZM.bl cells: 0.081 µg/mL
  IC80, titer in TZM.bl cells: 1.32 µg/mL
[10]
  IC50, titer in TZM.bl cells: 0.132 µg/mL
  IC80, titer in TZM.bl cells: 1.53 µg/mL
[11]
  IC50, titer in TZM.bl cells: 2.69 µg/mL
  IC80, titer in TZM.bl cells: > 10 µg/mL
[12]
  IC50, titer in TZM.bl cells: 0.798 µg/mL
  IC80, titer in TZM.bl cells: 3.89 µg/mL
[13]
  IC50, titer in TZM.bl cells: 1.82 µg/mL
  IC80, titer in TZM.bl cells: > 10 µg/mL
[26]
  IC50, titer in TZM.bl cells: 1.11 µg/mL
  IC80, titer in TZM.bl cells: 5.25 µg/mL
[27]
  IC50, titer in TZM.bl cells: 0.666 µg/mL
  IC80, titer in TZM.bl cells: 6.49 µg/mL
[28]
  IC50, titer in TZM.bl cells: 1.25 µg/mL
  IC80, titer in TZM.bl cells: 6.58 µg/mL
[29]
  IC50, titer in TZM.bl cells: 1.56 µg/mL
  IC80, titer in TZM.bl cells: 9.84 µg/mL
[30]
  IC50, titer in TZM.bl cells: 0.304 µg/mL
  IC80, titer in TZM.bl cells: 3.06 µg/mL
[31]
  IC50, titer in TZM.bl cells: 0.326 µg/mL
  IC80, titer in TZM.bl cells: 1.92 µg/mL
[32]
  IC50, titer in TZM.bl cells: 1.29 µg/mL
  IC80, titer in TZM.bl cells: 8.27 µg/mL
[14]
  IC50, titer in TZM.bl cells: 1.16 µg/mL
  IC80, titer in TZM.bl cells: 6.93 µg/mL
[15]
  IC50, titer in TZM.bl cells: 0.109 µg/mL
  IC80, titer in TZM.bl cells: 0.837 µg/mL
[16]
  IC50, titer in TZM.bl cells: 0.068 µg/mL
  IC80, titer in TZM.bl cells: 0.495 µg/mL
[18]
  IC50, titer in TZM.bl cells: 2.11 µg/mL
  IC80, titer in TZM.bl cells: > 10 µg/mL
[19]
  IC50, titer in TZM.bl cells: 4.19 µg/mL
  IC80, titer in TZM.bl cells: > 10 µg/mL
[21]
  IC50, titer in TZM.bl cells: 0.034 µg/mL
  IC80, titer in TZM.bl cells: 0.25 µg/mL
[22]
  IC50, titer in TZM.bl cells: > 10 µg/mL
  IC80, titer in TZM.bl cells: > 10 µg/mL
[23]
  IC50, titer in TZM.bl cells: 0.171 µg/mL
  IC80, titer in TZM.bl cells: 1.19 µg/mL
[24]
  IC50, titer in TZM.bl cells: 0.506 µg/mL
  IC80, titer in TZM.bl cells: 6.75 µg/mL
